The values that follow come from patent publication CN105695419A.

The target in the test is His标签蛋白. Put plainly: ELISA titre of mouse ascites.

B1: 杂交瘤细胞株4C9(CCTCC NO. C2015198)分泌的抗His标签蛋白单克隆抗体 (antibody, V domains shown)
VH: EVQLQESGAELMKPGASVKLSCKATGYTFTGYWIEWVKQRPGHGLEWIGEILPGSGSINHNENFKDKATFTADTSSNTAYMQLNSLTTEDSAVYFCAGGGGYWGQGTTLTVSS
VL: EIVITQTPLSLPVSLGDQASISCRSSRSIVHSNGNTYLEWYLQKPGQSPKLLIYKVSNRVSGVPDRFSGSGSGTDFTLKISRVEAEDLGVYYCFQGSHVPLTFGAGTKLELKR
With B1, the ELISA效价 came out at 1.28e+06.
